From patent US20200399343A1

Tests used:
[1] = molecular target: major histocompatibility complex (MHC) Class I
[2] = molecular target: major histocompatibility complex (MHC) Class I; remark: listed apart in the source

Sequence of US3 (P09712 21-186 limits assumed): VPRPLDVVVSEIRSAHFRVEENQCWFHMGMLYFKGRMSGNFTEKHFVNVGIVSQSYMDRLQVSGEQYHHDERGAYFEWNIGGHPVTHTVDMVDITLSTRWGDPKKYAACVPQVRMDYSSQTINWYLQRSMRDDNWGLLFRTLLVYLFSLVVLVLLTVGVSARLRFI
Sequence of K3 (P90495 whole entry): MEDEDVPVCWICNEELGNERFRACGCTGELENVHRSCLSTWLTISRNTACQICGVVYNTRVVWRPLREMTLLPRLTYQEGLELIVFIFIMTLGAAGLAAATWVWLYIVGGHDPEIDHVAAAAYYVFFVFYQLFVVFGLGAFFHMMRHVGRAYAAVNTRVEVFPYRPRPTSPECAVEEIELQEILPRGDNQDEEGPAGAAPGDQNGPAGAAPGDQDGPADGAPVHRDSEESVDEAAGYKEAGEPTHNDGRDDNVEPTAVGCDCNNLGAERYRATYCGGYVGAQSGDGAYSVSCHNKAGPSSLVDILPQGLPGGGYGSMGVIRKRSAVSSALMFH
Sequence of K5 (P90489 whole entry): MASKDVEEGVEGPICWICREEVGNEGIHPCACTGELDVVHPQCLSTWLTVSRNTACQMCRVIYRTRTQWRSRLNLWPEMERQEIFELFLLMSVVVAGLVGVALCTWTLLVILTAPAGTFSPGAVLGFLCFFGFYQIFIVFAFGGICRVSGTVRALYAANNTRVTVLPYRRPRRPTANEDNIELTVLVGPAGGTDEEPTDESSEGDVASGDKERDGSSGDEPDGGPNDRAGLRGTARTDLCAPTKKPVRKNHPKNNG

Molecule	MHC Class I expression (MFI HLA A/B/C) on transduced primary T cells (MFI HLA A/B/C) [1]	MHC Class I expression (MFI HLA A/B/C) on transduced Jurkat cells (MFI HLA A/B/C) [2]
K5	4480	661
US3	13000	5320
K3	10900	2170
E19 (protein) TTQKVDFKEPACNVTFAAEANECTTLIKCTTEHEKLLIRHKNKIGKYAVYAIWQPGDTTEYNVTVFQGKSHKTFMYTFPFYEMCDITMYMSKQYKLWPPQNCVENTGTFCCTAMLITVLALVCTLLYIKYKSRRSFIEEKKMP	14800	3430
US2 (protein) MNNLWKAWVGLWTSMGPLIRLPDGITKAGEDALRPWKSTAKHPWFQIEDNRCYIDNGKLFARGSIVGNMSRFVFDPKADYGGVGENLYVHADDVEFVPGESLKWNVRNLDVMPIFETLALRLVLQGDVIWLRCVPELRVDYTSSAYMWNMQYGMVRKSYTHVAWTIVFYSINITLLVLFIVYVTVDCNLSMMWMRFFVC	14500	6080
US11 (protein) MPELSLTLFDEPPPLVETEPLPPLSDVSEYRVEYSEARCVLRSGGRLEALWTLRGNLSVPTPTPRVYYQTLEGYADRVPTPVEDVSESLVAKRYWLRDYRVPQRTKLVLFYFSPCHQCQTYYVECEPRCLVPWVPLWSSLEDIERLLFEDRRLMAYYALTIKSAQYTLMMVAVIQVFWGLYVKGWLHRHFPWMFSDQW	14600	8080
US6 (protein) ERSSRDPKTLLSLSPRQQACVPRTKSHRPVCYNDTGDCTDADDSWKQLGEDFAHQCLQAAKKRPKTHKSRPNDRNLEGRLTCQRVRRLLPCDLDIHPSHRLLTLMNNCVCDGAVWNAFRLIERHGFFAVTLYLCCGITLLVVILALLCSITYESTGRGIRR	9500	1720
ICP47 (protein) MSWALEMADTFLDTMRVGPRTYADVRDEINKRGREDREAARTAVHDPERPLLRSPGLLPEIAPNASLGVAHRRTGGTVTDSPRNPVTR	5940	2060
